From patent US20230045015A1, “Use of Cobra neurotoxin polypeptide molecule in the treatment of nephropathy proteinuria” (priority 2019, published 2023)

Experiments:
[1] = molecular target: T1, nicotinic acetylcholine receptor (nAChR) (Rattus norvegicus, UniProt P25108+P25110); experiment: 125I-αBtx-nAChR binding inhibition (affinity test of snake venom protein peaks); details: rat skeletal muscle nAChR extract; αBTX = 100%, BSA = 0%
T1 construct: rat skeletal muscle nAChR extract; from tissue; host or cells: rat skeletal muscle (extract)
Text: The method was based on the affinity test between 12 protein peaks and nicotinic acetylcholine receptor (nAChR).
The Principle of Affinity Test
Because α-bungarotoxin has high affinity with the nicotinic acetylcholine receptor (nAChR), the cobra neurotoxin can compete with α-bungarotoxin for binding with nicotinic acetylcholine receptor, and only these α-bungarotoxin labeled with the radionuclide 125I and bound with the nicotinic acetylcholine receptor will be precipitated and be counted by the Gamma immunocount instrument whilst unbound α-bungarotoxin will be washed out. Therefore, 12 isolated proteins binding inhibition rate of α-bungarotoxin with nicotinic acetylcholine receptor (nAChR) could be used to measure the affinity between the isolated proteins and nicotinic acetylcholine receptor (nAChR), that's each isolated protein's bioactivity, which could be further determined by the γ counting value per second (Bq) measured by immune counter, and it becomes the index of proteins bioactivity.
The way of implementation include the method of binding inhibition rate of 125I radioactive labeling-α-bungarotoxin with nicotinic acetylcholine receptor (%) which reflects the activity of each protein.
The method for identifying cobra neurotoxin with high affinity with nicotinic acetylcholine receptor (nAChR) includes the following steps: […]

[2] = test system: adriamycin induced rat nephritis proteinuria; experiment: Adriamycin induced nephritis proteinuria in rats (unilateral nephrectomy + adriamycin); assay type: in vivo; details: urine, ELISA, adriamycin 3 + 2 mg/kg, 20 ug/kg by gavage once a day for 8 weeks
Text: 1. Experimental Animals and Groups
80 male SD rats weighing 160-180 g were randomly divided into 2 groups: 20 in the control group and 60 in the model group. 40 rats in model group, after success in modeling, were randomly divided into cobra neurotoxin polypeptide treatment group and model group.
Each group of the three, namely control group, treatment group and model group were randomly divided into two groups again, with 10 rats in each group to test cobra neurotoxin peptide SEQ ID No. 1 and SEQ ID No. 2, the remaining rats were out of the groups.
Glomerulosclerotic rats were established by unilateral nephrectomy combined with tail vein injection of adriamycin twice every 2 weeks. Model. […] The control group was injected into caudal vein on the 4th and 18th day respectively with normal saline 0.5 ml.
During the 8 weeks of observation, the treatment group was given cobra neurotoxin polypeptide·20 ug/kg by gavage once a day, continuously for 8 weeks; the model group and the control group were perfused with normal saline once a day for 8 weeks.
3. Collection and Detection of Urinary Protein
After the last treatment, the rats were placed in the metabolic cage to collect 10 ml of urine, centrifuged at 3500 r/min for 10 min, the supernatant was extracted into the cryopreservation tube, stored in the refrigerator at −80° C. for standby, and the urinary A1 microglobulin was detected by enzyme-linked immunosorbent assay, β2-microglobulin, microalbumin, transferrin and immunoglobulin G (IgG), operate according to the instructions of ELISA kit.
Anesthetized rats were injected intraperitoneally with 1.5% Pentobarbital Sodium (50 mg/kg). After the corneal reflex disappeared, the abdominal cavity was opened and the abdominal aorta was exposed. The abdominal aorta collected 10 ml of whole blood and placed in a centrifuge tube. After standing for 2 h, centrifuged at 3500 r/min for 10 min. The supernatant was extracted in a cryopreservation tube and stored in a refrigerator at −80° C. for standby. The serum creatinine, urea nitrogen, cholesterol and triglyceride were detected by a full-automatic biochemical analyzer.

[3] = test system: streptozotocin (STZ)-induced rat nephritis proteinuria; experiment: Streptozotocin (STZ)-induced nephritis proteinuria in rats; assay type: in vivo; details: urine, ELISA, streptozotocin (STZ) 55 mg/kg, 20 ug/kg by gavage once a day for 8 weeks

T1 sequence (P25108 21-457): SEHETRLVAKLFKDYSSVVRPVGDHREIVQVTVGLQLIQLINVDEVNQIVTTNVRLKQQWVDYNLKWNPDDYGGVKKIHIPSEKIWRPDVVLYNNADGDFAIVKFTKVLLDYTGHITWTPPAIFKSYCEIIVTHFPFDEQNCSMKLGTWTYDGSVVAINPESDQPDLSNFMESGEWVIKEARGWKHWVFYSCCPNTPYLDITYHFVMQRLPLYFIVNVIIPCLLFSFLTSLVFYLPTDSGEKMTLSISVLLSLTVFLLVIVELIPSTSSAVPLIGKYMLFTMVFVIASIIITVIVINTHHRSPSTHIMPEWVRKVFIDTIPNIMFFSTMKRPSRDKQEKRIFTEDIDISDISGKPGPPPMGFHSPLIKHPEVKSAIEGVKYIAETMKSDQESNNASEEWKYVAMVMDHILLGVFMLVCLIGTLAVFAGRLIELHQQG
T1 sequence (P25109 24-501 partner): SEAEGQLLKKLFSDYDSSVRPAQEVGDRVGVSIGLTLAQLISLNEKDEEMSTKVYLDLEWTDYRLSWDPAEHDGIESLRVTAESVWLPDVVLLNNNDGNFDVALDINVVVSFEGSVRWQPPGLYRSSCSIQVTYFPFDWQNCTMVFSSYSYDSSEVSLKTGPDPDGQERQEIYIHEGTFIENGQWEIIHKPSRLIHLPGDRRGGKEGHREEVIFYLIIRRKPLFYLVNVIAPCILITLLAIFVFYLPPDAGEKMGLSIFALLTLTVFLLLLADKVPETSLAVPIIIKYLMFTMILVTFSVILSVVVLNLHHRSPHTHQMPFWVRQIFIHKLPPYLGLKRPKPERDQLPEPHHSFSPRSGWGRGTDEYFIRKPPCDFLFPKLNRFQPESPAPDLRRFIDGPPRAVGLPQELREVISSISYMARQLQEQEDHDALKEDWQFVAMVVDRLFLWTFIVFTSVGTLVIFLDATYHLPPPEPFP
T1 sequence (P25110 22-517): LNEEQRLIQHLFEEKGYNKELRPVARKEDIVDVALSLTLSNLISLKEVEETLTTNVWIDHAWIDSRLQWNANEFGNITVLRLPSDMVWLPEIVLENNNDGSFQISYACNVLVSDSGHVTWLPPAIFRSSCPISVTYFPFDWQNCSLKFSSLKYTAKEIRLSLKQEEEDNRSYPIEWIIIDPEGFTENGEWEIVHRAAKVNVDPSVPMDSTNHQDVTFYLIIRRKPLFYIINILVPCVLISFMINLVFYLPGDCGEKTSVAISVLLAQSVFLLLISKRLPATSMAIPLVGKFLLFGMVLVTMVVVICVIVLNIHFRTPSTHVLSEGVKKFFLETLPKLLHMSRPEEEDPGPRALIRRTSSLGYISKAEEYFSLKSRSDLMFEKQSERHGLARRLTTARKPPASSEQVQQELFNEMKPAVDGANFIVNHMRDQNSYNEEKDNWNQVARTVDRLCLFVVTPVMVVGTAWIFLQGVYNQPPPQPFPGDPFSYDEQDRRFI

Molecule | 125I-αBtx-nAChR binding inhibitory rate [1] | IgG ([2]; Table 1) [µg/mL] | TRF ([2]; Table 1) [µg/mL] | UALB ([2]; Table 1) [µg/mL] | a1-MG ([2]; Table 1) [µg/mL] | β2-MG ([2]; Table 1) [ng/mL] | IgG ([3]; Table 3) [µg/mL] | TRF ([3]; Table 3) [µg/mL] | UALB ([3]; Table 3) [µg/mL] | a1-MG ([3]; Table 3) [µg/mL] | β2-MG ([3]; Table 3) [ng/mL] | IgG ([2]; Table 2) [µg/mL] | TRF ([2]; Table 2) [µg/mL] | UALB ([2]; Table 2) [µg/mL] | a1-MG ([2]; Table 2) [µg/mL] | IgG ([3]; Table 4) [µg/mL] | TRF ([3]; Table 4) [µg/mL] | UALB ([3]; Table 4) [µg/mL] | a1-MG ([3]; Table 4) [µg/mL]
SEQ ID No. 1 (protein, listed as Naja atra) LECHNQQSSQTPTTTGCSGGETNCYKKRWRDHRGYRTERGCGCPSVKNGIEINCCTTDRCNN | about 50% | 0.34 ± 0.08 | 0.17 ± 0.08 | 0.89 ± 0.11 | 0.52 ± 0.8 | 29.29 ± 6.93 | 0.35 ± 0.11 | 0.17 ± 0.05 | 1.21 ± 0.14 | 1.02 ± 0.21 | 38.90 ± 11.82 | – | – | – | – | – | – | – | –
SEQ ID No. 2 (protein, listed as Naja atra) MKTLLLTLLVVTIVCLDLGYTLECHNQQSSQTPTTTGCSGGETNCYKKRWRDHRGYRTERGCGCPSVKNGIEINCCTTDRCNN | – | – | – | – | – | – | – | – | – | – | – | 0.31 ± 0.15 | 0.11 ± 0.032 | 0.82 ± 0.21 | 0.74 ± 0.14 | 0.31 ± 0.09 | 0.18 ± 0.06 | 0.89 ± 0.26 | 0.96 ± 0.19
